Data from the RNAGym collection of RNA variant scans (doi:10.1073/pnas.2313332121).

B1: TPR t1 (parent)
chain: GACCAAUCUGCCCUCAGAGCUCGAGAACAUCUUCGGAUGCAGAGGAGGCAGGCUUCGGUGGCGCGAUAGCGCCAACGUCCUCAACCUCCAAUGCAUCCCACCACAUGAUGAUGCCUGAAGAGCCUUGGUUUUUUG

Variants of: B1
Assay: polymerase ribozyme fitness, log enrichment relative to wild type (log ratio); higher = more active; in vitro selection for triplet polymerase activity
Procedure, shortened: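 The heterodimeric triplet polymerase ribozyme's subunits were each mutagenized into PCR-built libraries and transcribed. Every library was selected once, in triplicate, by annealing with a biotinylated primer, the partner subunit and triplets, incubating frozen at −7 °C, gel-excising extended constructs, capturing on streptavidin beads and running RT-PCR. Input and output libraries were Illumina-sequenced, with genotypes kept only at ≥10 input reads and ≥1 read per output. Fitness, from inverse-variance-weighted replicate averages, is the base-2 logarithm of genotype enrichment over wild-type enrichment.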

Row | Variant | polymerase ribozyme fitness (log ratio)
1 | GACCAAUCUGCCCUCAGAGCUCGAGAACAUCUUCGGAUGCAGAGGAGGCAGGGUUCGGUGGCGCGAUAGCGGCAACGUCCUCAACCUCCAAUGCAUCCCACCACAUGAUGAUGCCUCAAGAGCCUUGGUUUUUUG [C53G C72G G117C] | -4.69
2 | GACCAAUCUGCCCUCAGAGCUCGAGAACAUCUUCGGAUGCAGAGGAGGCAGGAUUCGGUGGCGCGAUAGCGCCAACGUCCUCAACCUCCAAUGCAUCCCACCACAUGAUUAUGCCUGAAGAGCCUUGGUUUUUUG [C53A G110U] | -1.02
3 | GACCAAUCUGCCCUCAGAGCUCGAGAACAUCUUCGGAUGCAGAGGAGGCAGGAUUCGGUGGCACGAUAGCGCCAACGUCCUCAACCUCCAAUGCAUCCCACCACAUGAUGAUGCCUGAAGAGCUUUGGCUUUUGG [C53A G63A C124U U129C U134G] | 1.57
4 | GACCAAUCUGCCCUCAGAGCUCGAGAACAUCUUCGGAUGCAGAGGAGGCAGGGUUCGGUGGCGCGAUAGGGCCAACGUCCUCAACCUCCAAUGCAUCCCACCACAUGAUGAUGCCUGAAGAGCCUUGGUUUUUUG [C53G C70G] | -2.85
5 | GACCAAUCUGCCCUCAGAGCUCGAGAACAUCUUCGGAUGCAGAGGAGGCAGGAUACGGUGGCGCGAUAGCCCCAACGUCCUCAACCUUUAAUGCAUCCCACCACAUGAUGAUGCCUGAAGAGCCUUGGUUUUUUG [C53A U55A G71C C88U C89U] | -1.28
6 | GACCAAUCUGCCCUCAGAGCUCGAGAACAUCUUCGGAUGCAGAGGAGGCAGGAUUCGGUGGCGCGAUAGCCCCAACGUCCUCAACAUCCAAUGCAUCCCACCACAUGAUGAUGCCUGAAGAGCAUUGGUUUUUUG [C53A G71C C86A C124A] | -2.54
7 | GACCAAUCUGCCCUCAGAGCUCGAGAACAUCUUCGGAUGCAGAGGAGGCAGGAUUCGGUGGCGCGAUAGCGCCAACGUCCUCAACCUCCAAUGCAUCCCACCACAUGAUGAUGCCUGAAGAUACUUGGUUUUUUG [C53A G122U C123A] | 0.198
8 | GACCAAUCUGCCCUCAGAGCUCGAGAACAUCUUCGGAUGCAGAGGAGGCAGGGUUCGGUGGUGCGAUAGCGACAACGUCCUCAACCUCCAAUGCAUCCCACCACAUGAUGAUGCCUGAAGAGCUUUGGUUUUUUG [C53G C62U C72A C124U] | 0.806
9 | GACCAAUCUGCCCUCAGAGCUCGAGAACAUCUUCGGAUGCAGAGGAGGCAGGAAUCGGUGGCGCGAUAGCGCCAACGUCAUCAACCUCCAAUGCAUCCCACCACAUGAUGAUGACUGAAGAGCGAUGGUUUUUUG [C53A U54A C80A C114A C124G U125A] | -6.7
10 | GACCAAUCUGCCCUCAGAGCUCGAGAACAUCUUCGGAUGCAGAGGAGGCAGGGUUCGGUGGCGCGAUAGCGCAAACGUCCUCAACCUCCAAUGCAUCCCACCACCUGAUGAUGCCUGAAGAGCCUUGGUUUUUUG [C53G C73A A105C] | -3.2
11 | GACCAAUCUGCCCUCAGAGCUCGAGAACAUCUUCGGAUGCAGAGGAGGCAGGGUUCGGUGGCGCGAUAGCGCCAACGUCCUCAACCUCCAAUGCAUCCCACCACAUGAUGAUGCCUGAUGAGACUUGGUUUUUUG [C53G A119U C123A] | -1.16
12 | GACCAAUCUGCCCUCAGAGCUCGAGAACAUCUUCGGAUGCAGAGGAGGCAGGAUUCGGUGACGCGAUAGCGCCAACGGACGCAAACUCCAAUGCAUCCCACCACAUGAUGAUGCCUGAAGAGCCUUGGUUUUUUG [C53A G61A U78G C79A U81G C85A] | -4.32
13 | GACCAAUCUGCCCUCAGAGCUCGAGAACAUCUUCGGAUGCAGAGGAGGCAGGAUUCGGUCGCGCGAUAGCGCCAACGUCCUCAACCUCCAAUGCAUCCCACCCCAUGAUGAUGCCCGAACAGCCUUGGUUUUUUG [C53A G60C A103C U116C G120C] | -7.17
14 | GACCAAUCUGCCCUCAGAGCUCGAGAACAUCUUCGGAUGCAGAGGAGGCAGGGUUCGGUGGCGCGAUAGCGCCAACGUCCUCAACCUCCAAUGCAUACCACCACAUGAUGAUACCUGAAGAGCCUUGGUUUUUUG [C53G C97A G113A] | -4.75
15 | GACCAAUCUGCCCUCAGAGCUCGAGAACAUCUUCGGAUGCAGAGGAGGCAGGAUUCGGUGGCGCGAUAGCGCCAACGUCCUCAACCACCGAUGCAUGCCACCACAUGAUGAAGCCUGAAGAGCCUUGGUUUUUUG [C53A U87A A90G C97G U112A] | -3.25
16 | GACCAAUCUGCCCUCAGAGCUCGAGAACAUCUUCGGAUGCAGAGGAGGCAGGGUUCGGUGGCGCGAUAGCGCUAACGUCCUCAACCUCCAAUGCAUCCCACCACAUGAUGAUGCCUGAAGAGCCUUGGUUUUUUG [C53G C73U] | -0.493
17 | GACCAAUCUGCCCUCAGAGCUCGAGAACAUCUUCGGAUGCAGAGGAGGCAGGGUUCGGUGGCGCGAUAGCGUCAACGUCCUCAACCUCCAAUGCAUCCCACCAAAUGAUGAUGCCUGAAGAGCCUUGGUUUUUUG [C53G C72U C104A] | -1.89
18 | GACCAAUCUGCCCUCAGAGCUCGAGAACAUCUUCGGAUGCAGAGGAGGCAGGAUUCGGUGGCUCGAUAGCGCCAACGUCCUCAACCUCCAAUGCAUCCCACCACAUGAUGAUGCCUGAAGAGCCUUGGUUUUUUG [C53A G63U] | -1.77
19 | GACCAAUCUGCCCUCAGAGCUCGAGAACAUCUUCGGAUGCAGAGGAGGCAGGAUUCGGUGGCACGAUAGCGCCAACGUCCUCAACCUCCAAUGCAUCCCACCACAUGAUGAUGCCUGAAGAGCCUUGGUUUUUUG [C53A G63A] | -0.638
20 | GACCAAUCUGCCCUCAGAGCUCGAGAACAUCUUCGGAUGCAGAGGAGGCAGGAUUCGGUGGCGCGAUAGCGCCAACGUCCUCAACCUCCAAUGCAUCCCACCACAUGAUGAUGCCUGAAGAGCCUUGGUUUUGUG [C53A U133G] | -0.187
21 | GACCAAUCUGCCCUCAGAGCUCGAGAACAUCUUCGGAUGCAGAGGAGGCAGGAUUCGGUGGCGCGAUAGCGCCAACGUCCUCAACCUCCAAUGCAUCCCACCACAUGAUGAUGCCGGAAGAGCCUUGGUUUUUUG [C53A U116G] | -1.78
